These are literature values, as cited in PMC8400902.

As a reminder, the Kd is a measure of binding affinity in units of concentration.

Data set [1] concerns the target Amyloid beta fibril (Homo sapiens) (UniProt P05067).
Data set [2] addresses Amyloid beta (Homo sapiens) (UniProt P05067).
For data set [3] the target is unchanged. This is another data set of the same source.

Read-outs that look alike come from different tables or passages of the source.

Chain of Agrin (O00468 1864-2068): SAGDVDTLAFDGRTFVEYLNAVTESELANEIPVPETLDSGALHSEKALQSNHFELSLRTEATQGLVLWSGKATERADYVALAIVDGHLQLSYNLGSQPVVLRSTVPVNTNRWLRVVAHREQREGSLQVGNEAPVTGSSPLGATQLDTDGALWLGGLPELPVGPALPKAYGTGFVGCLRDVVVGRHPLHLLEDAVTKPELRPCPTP
Chain of Serum amyloid P component (P02743 20-222): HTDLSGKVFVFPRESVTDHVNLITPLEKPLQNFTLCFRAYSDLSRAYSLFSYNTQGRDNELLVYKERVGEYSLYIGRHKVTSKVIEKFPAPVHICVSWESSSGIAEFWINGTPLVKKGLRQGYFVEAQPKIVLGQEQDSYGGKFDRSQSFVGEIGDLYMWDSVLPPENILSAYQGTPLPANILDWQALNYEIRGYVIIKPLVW
Chain of Haptoglobin (P00738 19-160): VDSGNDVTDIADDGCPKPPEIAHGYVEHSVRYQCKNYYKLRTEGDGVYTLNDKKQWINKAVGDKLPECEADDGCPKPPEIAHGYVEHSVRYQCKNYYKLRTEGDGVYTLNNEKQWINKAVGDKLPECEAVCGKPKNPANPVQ

Agrin (from UniProt O00468): in data set [1], the Kd was 3.5 nM.
As to “Serum amyloid P component (from UniProt P02743)”, the Kd in data set [2] is 6 nM.
For the substance Haptoglobin (from UniProt P00738), in data set [3], the Kd is 300 nM.
